Test system: MS2 coat protein
Test: apparent KD of MS2 coat protein; higher = weaker reporter binding
Conditions: Eterna round: R107
Method: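 RNA-MaP round R107: designed RNA switches with theophylline, tryptophan, arginine or FMN aptamers are transcribed on-chip within common flanks. They are titrated with SNAP-549-labelled MS2 coat protein in RNA-MaP buffer (100 mM Tris pH 7.5, 80 mM KCl, 4 mM MgCl2), without ligand or with the indicated ligand. Median apparent KD per design.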

[1] = input ligand: theophylline 20 uM
[2] = input ligand: tryptophan 2.4 mM
[3] = input ligand: theophylline 2 mM

Sequence	apparent KD of MS2 coat protein (input ligand: arginine 13.2 mM)	apparent KD of MS2 coat protein [1]	apparent KD of MS2 coat protein [2]	apparent KD of MS2 coat protein (input ligand: none)	apparent KD of MS2 coat protein [3]
UUUACAUGAGGAUCACCCAUGUGCCAUGAUACCAGACAUGAAAAUGUCCCUUGGCAGCAUGAAUAAUCCUCGUCGGGAAACCGAC [Lisen]	110 nM	195 nM	70.8 nM		
AGAAUAACACAUGAGGAUCACCCAUGUGAUACCAGCUAGGAAACUAGCCCUUGGCAGCACAUAAUCCUCAUGAAUGUGCUGAAUA [(M1)-(M2)-(T1)-(T2)-(M)'-(T)'_Design3_2/19/17]	37.3 nM	121 nM	59.7 nM		
CUGGACAUGAGGAUCACCCAUGUAAAUCCUCGAGGACCGGUACGGCCGCCACUCGAACGAGUGGCACGCGAGUGCGCACUCGCGU [aLa]	26.9 nM	45.6 nM	33 nM	29.8 nM	36.2 nM
UGUAUGGACUGAAGGAGCGGUAGAUAACUUGAGGAUCACCCAGGUAAUAAGGCGAAAGCCUACCAGGUAGGUCGCAGUCCAUACU	203 nM	171 nM	138 nM	144 nM	153 nM
AGCGACAUGCGUGAUACCAGCUACAUGAGGAUCACCCAUGUCAGUAGGAAACUACUGUGUAGCCCUUGGCAGCACAGUGCAUGUC [Exclusion - Theophylline B (Freestyle 26)]	12.3 nM	31.9 nM	17.7 nM	16.4 nM	30.2 nM
UGUUUGGUGCGCGAGUGUUGGAUAAAUGAUACCAGUGUAGAUGUACGCCCUUGGCAGCGUAUCCGAACAUGAGGAUCACCCAUGU [5.aB]	26.7 nM	44.9 nM	36.3 nM		
UGUAACAUGAGGAUCACCCAUGUGCACGAUACCAGCUUAUUGAUAGGCCCUUGGCAGCGUAUGCGGAAGCUGUAUAAUAUAUAUC [#27 SameState-TheophyllineA]	10.3 nM	18.6 nM	10.8 nM		
GGAUAGGACACGGCCGCCACUACCUAGGAUACUAGCAACAUUUGGGUACAUGAGGAUCACCCAUGUAGGACCGGGUGUCCUAUCG	31.9 nM	34.2 nM	124 nM	25.3 nM	28.4 nM
GGUCUCUGGAGCGAUACCAGCUUGAGUGUACUGGCCAGGUACAUGAGGAUCACCCAUGUAAGCCCUUGGCAGCGCUGCAGAGACC [#1 Exclusion - Theophylline B Attempt #16 (HarryS)]	9.75 nM	15 nM	11.2 nM		
AAAUUAUAGGCGGCCGCCACUAGAGUUAGGCUUAUGUACUGGGUAACAUGAGGAUCACCCAUGUAUAGGACCGGGCCAUAAUAAA [Same State - Tryptophan B (Freestyle 3)]	46.9 nM	76.2 nM			63.5 nM
ACGUAAAGCAGAAGGAGCGUCUUAAUUCUACAUGAGGAUCACCCAUGUUUACAUUGAAUAUGACAGGUAGGUCGCUGAAGUACGA [JR_SSArginiB_Sub001]	23.5 nM	27.5 nM	23.8 nM	33.9 nM	30.8 nM
AUUAAAAGUUGUGAUACCAGACGAACAUGAGGAUCACCCAUGUAACUUUUAGGUGUUGUAGUCCCUUGGCAGCACUAUGUAGUUA [JR_SSTheophyB_Sub012]	31.3 nM	49.2 nM	40.1 nM		
GAGACGUCGGGAAGGAGCGCAUCAAAACCACACAUGAGGAUCACCCAUGUAUAAAUAUGCAUGCAGGUAGGUCGCCCGGUGUCCA [SS-ArgB16]	24.2 nM	33.6 nM	29.1 nM	27.1 nM	33.1 nM
UUUACAUGAGGAUCACCCAUGUGCCAUGAUACCAGACAUGAAAAUGUCCCUUGGCAGCAUGAGUGAAGCGUCGGGAAACCGACGC [Kninicky]	57.1 nM	229 nM	261 nM	249 nM	297 nM
UCGGGCAGAGCGGCCGCCACUGUAAGGCGUGCGGAUGACGGAACAUGAGGAUCACCCAUGUUGUUUAGGACCGGGCUUGCGGCGA [nynullin]	22.5 nM	27.2 nM	16.7 nM	15.8 nM	11.2 nM
AUACAUGAGGAUCACCCAUGUAUAGAUGAAGGAGCGACCAGAGGGUCAGGUAGGUCGCAUCACAUGAGGAUCACCCAUGUAUUUU [DOUBLE!!! :-D #10]	41.9 nM	67.8 nM	43.7 nM	64 nM	64.4 nM
GGACUAACCUGAAGGAGCGACACGCACAAAGUGCAAAUUCCUCCACACGAGGAUCACCCGUGUCAGGUAGGUCGCAGGUUAGUCG [ArgBX 28]	24.3 nM	30.8 nM	29.1 nM	23 nM	23.7 nM
CCUAUGCAGUCGGCCGCCACUGAGUCCUCAAUAAUAAAUUAAUAUACAUGAGGAUCACCCAUGUACAGGACCGGGACUGUAUAGG [Ex Tryptophan B 13]	96.7 nM	268 nM			215 nM
UAACAUGAGGCGGCCGCCACUCAACAUGAGGAUCACCCAUGUAUGUGUAAACAUGAGGAUCACCCGAGGACCGGGCCCUUGUAAU [Same State Tryptophan B 4]	25.2 nM	46.7 nM	54.2 nM	33.4 nM	39.5 nM

Sequence	apparent KD of MS2 coat protein (input ligand: arginine 13.2 mM)	apparent KD of MS2 coat protein [1]	apparent KD of MS2 coat protein [2]	apparent KD of MS2 coat protein (input ligand: none)	apparent KD of MS2 coat protein [3]
UGACAUUGCUCAGAUACCAGACGUGAGGAUCACCCACGUGCCAACAAGUACAAAAUAAAUGUCCCUUGGCAGCUGAGCAAUGUCU [TheoBX 26 #MS2Left #AlternativeMS2 #Theo22]	9.64 nM	12.7 nM	10.9 nM	9.95 nM	14.1 nM
GGGACAUGAGGAUCACCCAUGUACCGGUCCCGAGGACCGGUACGGCCGCCACUCGAUGACCUCAUAGUCUACUUGAGCAGUAGAC [Geeson]	37.7 nM	143 nM	100 nM	22.1 nM	38.6 nM
AGCCGGAUUACGGCCGCCACUGUAGACGUGACGAAAGUCGCGUCAACAUGAGGAUCACCCAUGUACAGGACCGGGUGGUCGGGCG [Omei Tryp B SS A v5]	74.1 nM	247 nM			240 nM
UUCGCUGAGGGAAGGAGCGUGAAGACAUGAGGAUCACCCAUGUAGAGGCGCCGAAGGCGUUCGCAGGUAGGUCGCCCUCAGUGAG [#1 Same State - Arginine B Attempt #23 (HarryS)]	17.1 nM	24.7 nM	17.3 nM	16.4 nM	17.7 nM
AAUGUGAAGGCGGCCGCCACUGAUAAUAGACAUGAGGAUCACCCAUGUAUAAAUCCUCAAUAAGACAGGACCGGGCCAUCUACGU [#25 Exclusion Tryptophan B]	59 nM	134 nM			122 nM
AACAACUAGUCGGCCGCCACUCAUAAUACAUGAGGAUCACCCAUGUAUACUUGGUUUUUAUAUUUGAGGACCGGGACAGUUGCAU [JR_Nu_ExcTryptoB_Sub026]	12.5 nM	14.7 nM			10.7 nM
UUACAUGAGGAUCACCCAUGUCAUACAGAAGGAGCGUCACAUAAGACAGGUAGGUCGCUGUUAUAUCAUACUAUUAUAUCCUCUA [JR_Nu_ExcArginiA_Sub028]	22 nM	53.5 nM	33 nM	40.4 nM	38.2 nM
AUCGUACCUGAGGAUACCAGCAUGUGAUCAUAACAUGAGGAUCACCCAUGUAAUCAGUGAUGCCCUUGGCAGCUUGGUCGGUACA [Same State - Theophylline B (Freestyle 10)]	34.8 nM	74.3 nM	44.2 nM		
AAUUAUUUCUCAAUUAUUUAAUCUUCAGAAGGAGCGUGAUGAUUCACAGGUAGGUCGCUGAUGACAUGAGGAUCACCCAUGUAUU [JR_SSArginiA_Sub003]	30.6 nM	31.1 nM	27.5 nM	30.1 nM	29.1 nM
UGUAAUGGGAUCAACCCAUGAGAGUCUGAAGGAGCGAUCGUAAGAUCAGGUAGGUCGCAGGAGACAUGAGGAUCACCCAUGUAUA [Arg A Ex t2]	33.3 nM	56.6 nM	39.5 nM	38.7 nM	51.1 nM
GGUGGCUGGACUGAUACCAGCCACCACCGAUAGACCACAUGAGGAUCACCCAUGUUGGGUGGCCCUUGGCAGCAGUCUAGCUGCC [#1 Same State - Theophylline B Attempt #11 (HarryS)]	231 nM	727 nM	441 nM		
AUUUAUUAGACGGCCGCCACUUGAAAGCGACCUCAUAAAUGGGAACAUGAGGAUCACCCAUGUAAGAGGACCGGGUCUAGUAGAU [TryptB-ms2@45]	132 nM	150 nM			318 nM
UGGAGUAUCAGACAUGAGGAUCACCCAUGUCGAGGACCGGUACGGCCGCCACUCGGCAGUUUGCGUCCUCAGGUACUCCGGGUAA [Edlatearis]	16.8 nM	26.9 nM	27.7 nM	11.2 nM	15.3 nM
GUAUACAUGAGGAUCACCCAUGUACCAGAAGGAGCGCUGGAAACAGCAGGUAGGUCGCUGGUAGGUCCUCUAUCUAGACGUUCGG [EAA NP+V+V2 #4]	49.9 nM	191 nM	139 nM	168 nM	201 nM
ACAUUUAACUGAAGGAGCGUGAUAAACAUGAGGAUCACCCAUGUACCACAGAUUCUUAGAUCACAGGUAGGUCGCAGACUAAUGA [JR_ExcArginiB_Sub013]	11.2 nM	13.7 nM	12.4 nM	11.7 nM	12.6 nM
AAGACGCCGGGAAGGAGCGCAUCCAAACCACACAUGAGGAUCACCCAUGUAUAAAUAUGCAUGCAGGUAGGUCGCCCGAUGUCCC [Orbemative]	32.4 nM	48.8 nM	36.5 nM	31.6 nM	42.6 nM
CAAGAACAGCCAGAUCUUGGCAGCUGAGAAGGAGCGCGGGAAGCCGCAGGUAGGUCGCUCAGGAAUACAUGAGGAUCACCCAUGU [Beoror]	19.8 nM	24.6 nM	17.2 nM	17.6 nM	20 nM
UCGUGUAUAUCGGAUACCAGUGAAAUCGAUACAUGAGGAUCACCCAUGUGAGAGGAUGUACACCCUUGGCAGCUGUAUAUAUCUA	19.5 nM	28.5 nM	25.1 nM		
ACUCGGUAUGUCUAAUACCGAGAGUAUGAUACCAGUAUGGUGACAUACCCUUGGCAGCAUGGGACAUGAGGAUCACCCAUGUGUU [SSThA NP+V+V2 #10 Same Structure]	119 nM	465 nM	588 nM		
